Assay results from patent publication US20160175358A1.

Biological target: δ1 TCR on δ1 T-cells in PBMCs (human) (UniProt O00548)
Assay: cell-based or functional assay

Chain of UniProt O00548 (O00548 18-723, stated change not applied): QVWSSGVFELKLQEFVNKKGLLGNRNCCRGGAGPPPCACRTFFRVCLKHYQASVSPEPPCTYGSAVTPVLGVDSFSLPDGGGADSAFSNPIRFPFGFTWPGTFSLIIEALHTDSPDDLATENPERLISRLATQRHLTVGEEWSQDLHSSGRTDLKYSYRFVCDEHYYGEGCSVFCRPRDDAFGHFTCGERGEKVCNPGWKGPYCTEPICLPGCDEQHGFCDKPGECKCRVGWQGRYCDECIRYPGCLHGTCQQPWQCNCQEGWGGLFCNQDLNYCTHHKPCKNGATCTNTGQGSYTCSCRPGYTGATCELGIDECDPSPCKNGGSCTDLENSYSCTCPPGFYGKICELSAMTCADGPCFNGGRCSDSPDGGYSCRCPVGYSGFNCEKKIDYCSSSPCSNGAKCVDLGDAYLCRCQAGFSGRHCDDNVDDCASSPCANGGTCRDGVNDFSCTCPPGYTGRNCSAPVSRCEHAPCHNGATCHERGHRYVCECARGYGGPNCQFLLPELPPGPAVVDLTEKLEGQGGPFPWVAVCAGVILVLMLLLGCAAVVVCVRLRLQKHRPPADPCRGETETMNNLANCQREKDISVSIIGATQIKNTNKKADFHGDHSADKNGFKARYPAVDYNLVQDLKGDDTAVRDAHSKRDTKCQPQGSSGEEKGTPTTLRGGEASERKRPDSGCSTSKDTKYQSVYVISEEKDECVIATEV

**Q.** With anti-TCR Vδ1 TS-1 antibody as the substance, how does the induced proliferation, relative to TS8.2 read?
**A.** 3 fold
